Source: patent publication US20230414780A1 (VECT HORUS, published 2023)
Residue numbers refer to the chain shown, from its start.

How the values were obtained:
[1] = target: T1, human TfR ectodomain fused to a mouse IgG1 Fc fragment (human, UniProt P02786 89-760); assay: SPR, kinetic
T1 construct: extracellular domain; ectodomain fused to the N-terminal end of the Fc, made in-house; not shown: mouse IgG1 Fc fragment
Summary of the method: (§1)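 TfR–mouse Fc fusions, produced in-house, captured on HC 1500M or CM5 chips either directly or via immobilized anti-mouse IgG. VHHs injected in single-cycle or multiple-cycle kinetic mode on Biacore T200.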

[2] = target: T1, human TfR ectodomain fused to a mouse …; assay: SPR, at equilibrium
Summary of the method: as §1

[3] = target: T2, mouse transferrin receptor (mTfR) fused to EGFP, on CHO cells (mouse, UniProt Q62351 1-763); assay: apparent Kd, flow cytometry, CHO cells
T2 construct: whole, on cells; also called mouse TfR; CHO-mTfR-EGFP; not shown: EGFP
Protocol: (§2) All experiments were performed in 96 well plates using 2×10⁵ cells/well, at 4° C. with shaking. CHO cell lines stably expressing the hTfR or the mTfR fused to EGFP or CHO WT cells were saturated with PBS/BSA 2% solution during 30 min to avoid non-specific binding, followed by incubation with purified VHHs at concentrations ranging from 50 μM to 5 μM for 1 hr. After one wash in PBS/BSA 2%, cells were incubated for 1 hr with an anti-6His tag antibody (mouse), washed twice with PBS/BSA 2%, and incubated for 45 min with an Alexa647-conjugated anti-mouse secondary antibody. After two last washes in PBS/BSA 2%, cells were fixed by incubation for 15 min with PBS/PFA 2%, washed once with PBS and finally resuspended in PBS and stored at 4° C. Fluorescence levels were assessed using an Attune NxT Flow Cytometer (Thermo Fisher Scientific). […] No labeling of the CHO WT control cells was detected with all the tested VHHs (not shown). The VHH K_{d app} were calculated using GraphPad Prism software (FIG. 11-B; 12-B).

[4] = target: T3, human transferrin receptor (hTfR) fused to EGFP, on CHO cells (human, UniProt P02786 1-760); assay: flow cytometry on CHO-hTfR-EGFP cells, 1 hr at 4 C, anti-6His + Alexa647 anti-mouse; apparent Kd, mean ± SEM of 3 experiments
T3 construct: whole, on cells; also called human TfR; CHO-hTfR-EGFP; not shown: EGFP from pEGFP-C1 vector, fused to the N-terminal (intracellular) end of hTfR
Protocol: (§3) (A) CHO-hTfR-EGFP and CHO-mTfR-EGFP cells were incubated 1 hr at 4° C. with various concentrations of VHHs, detected with a mouse anti-6His (1/1000) and an Alexa647-conjugated anti-mouse secondary antibody (1/400). Measurements were performed using flow cytometry. The ratio of fluorescence intensity for each point was normalized with the corresponding EGFP signal (receptor expression) and gave rise to the arbitrary unit. Data are presented as mean±SEM of 3 independent experiments. (B) Characteristics of VHHs: Molecular Weight (Da); Theoretical pI; Apparent Kd on human TfR (nM); Apparent Kd on mouse TfR (nM). Data are presented as mean±SEM of 3 independent experiments. NB: no binding, LB: low binding.
All experiments were performed in 96 well plates using 2×10⁵ cells/well, at 4° C. with shaking. CHO cell lines stably expressing the hTfR or the mTfR fused to EGFP or CHO WT cells were saturated with PBS/BSA 2% solution during 30 min to avoid non-specific binding, followed by incubation with purified VHHs at concentrations ranging from 50 μM to 5 μM for 1 hr. After one wash in PBS/BSA 2%, cells were incubated for 1 hr with an anti-6His tag antibody (mouse), washed twice with PBS/BSA 2%, and incubated for 45 min with an Alexa647-conjugated anti-mouse secondary antibody. […] Fluorescence levels were assessed using an Attune NxT Flow Cytometer (Thermo Fisher Scientific).

[5] = target: T3, human transferrin receptor (hTfR) fused …; assay: apparent Kd, flow cytometry, CHO cells
Protocol: as §2

[6] = target: T3, human transferrin receptor (hTfR) fused …; assay: flow cytometry on CHO-hTfR-EGFP cells, 1 hr at 4 C, anti-6His + Alexa647 anti-mouse; apparent Kd, mean ± SEM of 3 experiments; remark: listed apart in the source
Protocol: (§4) (A) CHO-hTfR-EGFP and CHO-mTfR-EGFP cells were incubated 1 hr at 4° C. with various concentrations of VHHs, detected with a mouse anti-6His (1/1000) and an Alexa647-conjugated anti-mouse secondary antibody (1/400). Measurements were performed using flow cytometry.
as §2

[7] = target: T2, mouse transferrin receptor (mTfR) fused …; assay: flow cytometry on CHO-mTfR-EGFP cells, 1 hr at 4 C, anti-6His + Alexa647 anti-mouse; apparent Kd, mean ± SEM of 3 experiments
Protocol: as §4, §2

[8] = target: T2, mouse transferrin receptor (mTfR) fused …; assay: flow cytometry, CHO cells
[9] = target: T2, mouse transferrin receptor (mTfR) fused …; assay: flow cytometry on CHO-mTfR-EGFP cells, 1 hr at 4 C, Alexa647 anti-mouse; apparent Kd, mean ± SEM of 3 experiments
Protocol: as §3, with “FIGS. 13A-13B: Apparent Kd determination of 13C3-HC-VHH fusions on hTfR- and mTfR-expressing CHO cell lines. (A)” for “(A)”, “13C3 fusions and” for “VHHs,”, “with” for “with a mouse anti-6His (1/1000) and”, “anti-mouse” for “anti-mouse secondary”, “13C3 fusions:” for “VHHs:”, “(Da);” for “(Da); Theoretical pI;”
All experiments were performed in 96 well plates using 2×10⁵ cells/well, at 4° C. with shaking. CHO cell lines stably expressing the hTfR or the mTfR fused to EGFP or CHO WT cells were saturated with PBS/BSA 2% solution during 30 min to avoid non-specific binding, followed by incubation with purified VHHs at concentrations ranging from 50 μM to 5 μM for 1 hr. After one wash in PBS/BSA 2%, cells were incubated for 1 hr with an anti-6His tag antibody (mouse), washed twice with PBS/BSA 2%, and incubated for 45 min with an Alexa647-conjugated anti-mouse secondary antibody. After two last washes in PBS/BSA 2%, cells were fixed by incubation for 15 min with PBS/PFA 2%, washed once with PBS and finally resuspended in PBS and stored at 4° C. Fluorescence levels were assessed using an Attune NxT Flow Cytometer (Thermo Fisher Scientific).

[10] = target: T3, human transferrin receptor (hTfR) fused …; assay: flow cytometry on CHO-hTfR-EGFP cells, 1 hr at 4 C, anti-6His + Alexa647 anti-mouse; nonlinear fit
Protocol: CHO-hTfR-EGFP cells were incubated 1 hr at 4° C. with various concentrations of the indicated compounds. Detection of VHHs was performed using a primary mouse anti-6His (1/1000) and an Alexa647-conjugated anti-mouse secondary antibody (1/400). Measurements of cell-surface signal associated with VHH were performed using flow cytometry. The results are expressed as the ratio of Alexa647-associated fluorescence intensity of test compounds to that of background fluorescence.

[11] = target: T2, mouse transferrin receptor (mTfR) fused …; assay: cell-based flow cytometry assay on mTfR-expressing cells (as in Example XI)
[12] = target: T2, mouse transferrin receptor (mTfR) fused …; assay: cell-based flow cytometry assay on mTfR-expressing cells (as in Example XI); Kd/app
[13] = target: T2, mouse transferrin receptor (mTfR) fused …; assay: apparent Kd, cell-based assay

T2 sequence (Q62351 whole entry, the tested form may be a part): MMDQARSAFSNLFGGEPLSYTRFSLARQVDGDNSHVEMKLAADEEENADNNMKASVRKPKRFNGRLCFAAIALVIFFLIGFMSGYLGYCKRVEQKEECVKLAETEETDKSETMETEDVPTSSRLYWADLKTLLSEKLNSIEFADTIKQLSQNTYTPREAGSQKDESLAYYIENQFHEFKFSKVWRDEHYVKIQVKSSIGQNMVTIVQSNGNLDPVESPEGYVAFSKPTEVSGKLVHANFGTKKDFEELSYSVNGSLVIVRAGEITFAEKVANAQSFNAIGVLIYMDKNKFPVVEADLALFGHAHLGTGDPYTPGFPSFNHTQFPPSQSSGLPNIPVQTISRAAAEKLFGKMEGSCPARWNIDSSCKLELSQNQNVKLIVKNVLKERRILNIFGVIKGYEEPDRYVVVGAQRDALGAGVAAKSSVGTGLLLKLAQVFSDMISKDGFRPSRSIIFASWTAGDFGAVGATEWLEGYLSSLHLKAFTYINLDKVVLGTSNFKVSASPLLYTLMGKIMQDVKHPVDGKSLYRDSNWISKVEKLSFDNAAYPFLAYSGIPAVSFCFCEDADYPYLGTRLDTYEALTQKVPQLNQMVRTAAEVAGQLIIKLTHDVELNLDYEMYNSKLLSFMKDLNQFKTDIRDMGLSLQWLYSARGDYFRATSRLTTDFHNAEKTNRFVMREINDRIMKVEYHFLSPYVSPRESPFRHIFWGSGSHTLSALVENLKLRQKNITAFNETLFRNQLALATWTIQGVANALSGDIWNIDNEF
T1 sequence (P02786 89-760): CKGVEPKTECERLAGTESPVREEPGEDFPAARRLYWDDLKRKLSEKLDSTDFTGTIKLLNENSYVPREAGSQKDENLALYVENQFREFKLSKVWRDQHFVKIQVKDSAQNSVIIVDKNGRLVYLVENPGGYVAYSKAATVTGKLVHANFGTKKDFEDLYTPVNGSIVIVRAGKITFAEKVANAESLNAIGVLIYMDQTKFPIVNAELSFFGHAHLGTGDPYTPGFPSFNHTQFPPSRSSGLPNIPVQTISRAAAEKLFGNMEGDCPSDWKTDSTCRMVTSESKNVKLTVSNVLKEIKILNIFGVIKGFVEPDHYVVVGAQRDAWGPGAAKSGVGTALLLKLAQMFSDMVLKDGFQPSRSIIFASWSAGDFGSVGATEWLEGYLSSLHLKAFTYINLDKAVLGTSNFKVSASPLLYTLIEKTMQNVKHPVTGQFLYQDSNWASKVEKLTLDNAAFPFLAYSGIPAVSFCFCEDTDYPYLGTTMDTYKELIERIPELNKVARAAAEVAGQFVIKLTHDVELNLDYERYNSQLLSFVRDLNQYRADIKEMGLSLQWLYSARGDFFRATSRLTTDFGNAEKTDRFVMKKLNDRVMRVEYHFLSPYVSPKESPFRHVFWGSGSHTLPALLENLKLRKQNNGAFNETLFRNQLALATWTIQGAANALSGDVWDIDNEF
T3 sequence (P02786 whole entry, the tested form may be a part): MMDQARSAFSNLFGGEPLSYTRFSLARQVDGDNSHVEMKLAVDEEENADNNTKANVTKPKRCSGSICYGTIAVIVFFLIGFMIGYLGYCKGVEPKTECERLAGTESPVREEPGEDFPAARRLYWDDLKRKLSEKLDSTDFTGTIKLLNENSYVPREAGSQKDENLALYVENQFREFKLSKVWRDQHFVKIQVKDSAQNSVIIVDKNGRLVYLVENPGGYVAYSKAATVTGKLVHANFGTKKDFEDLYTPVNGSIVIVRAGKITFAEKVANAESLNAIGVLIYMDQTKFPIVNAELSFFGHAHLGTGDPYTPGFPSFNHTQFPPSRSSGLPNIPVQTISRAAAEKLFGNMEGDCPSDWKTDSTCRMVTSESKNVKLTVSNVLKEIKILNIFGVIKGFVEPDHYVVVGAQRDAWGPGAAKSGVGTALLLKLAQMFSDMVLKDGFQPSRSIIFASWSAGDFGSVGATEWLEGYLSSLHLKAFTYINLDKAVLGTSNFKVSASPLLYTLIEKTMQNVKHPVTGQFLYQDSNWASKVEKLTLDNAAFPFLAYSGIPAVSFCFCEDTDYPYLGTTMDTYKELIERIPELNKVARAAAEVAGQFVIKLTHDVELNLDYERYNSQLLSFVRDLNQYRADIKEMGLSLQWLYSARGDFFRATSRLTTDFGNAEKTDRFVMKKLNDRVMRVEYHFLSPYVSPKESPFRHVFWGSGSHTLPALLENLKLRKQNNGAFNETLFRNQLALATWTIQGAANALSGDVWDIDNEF

B1: VHH A5 (C5^V5) (VHH)
VHH: EVQLVESGGGVVQPGGSLKLSCVASGTDFSINFIRWYRQAPGKQREFVAGFTATGNTNYADSMKGRFTISRDNTKNAVYLQIDSLKPEDTAVYYCAMLDKWGQGTQVTVSS
Q: Which results are given for B1?
A: Kd [1]: 154 nM; koff [1]: 0.0509 s⁻¹; kon [1]: 332000 M⁻¹ s⁻¹; Kd [2]: 180 nM; Kd [3]: 604 nM; Kd [4]: 25 nM

B2: VHH A17 (C5^V17) (VHH)
VHH: B1 VHH with A96Y, L98I
Q: B2 was tested. Which Kd [5] did it give?
A: 3 to 4 nM

Q: What about the Kd [6] of the same binder?
A: 5.3 nM

Q: What about the Kd [7] of the same binder?
A: 208 nM

B3: VHH A19 (C5^V19) (VHH)
VHH: B1 VHH with A96Y, D99E
Q: With B3 as the binder, how does the Kd [1] read?
A: 22.3 nM

Q: What about the koff [1] of the same binder?
A: 0.0097 s⁻¹

Q: And the kon [1]?
A: 426000 M⁻¹ s⁻¹

Q: What about the Kd [2] of the same binder?
A: 7.13 nM

Q: And the Kd [6]?
A: 9.2 nM

Q: And the Kd [7]?
A: 210 nM

B4: 13C3-HC-VHH A1 (antibody)
heavy: QVQLQQSGPELVRPGVSVKISCKGSGYTFTDYAMHWVKQSHAKSLEWIGVISTKYGKTNYNQKFKGKATMTVDKSSSTAYMELARLTSEDSAIYYCARGDDGYSWGQGTSVTVSSAKTTPPSVYPLAPGSAAQTNSMVTLGCLVKGYFPEPVTVTWNSGSLSSGVHTFPAVLQSDLYTLSSSVTVPSSTWPSETVTCNVAHPASSTKVDKKIVPRDCGCKPCICTVPEVSSVFIFPPKPKDVLTITLTPKVTCVVVDISKDDPEVQFSWFVDDVEVHTAQTQPREEQFNSTFRSVSELPIMHQDWLNGKEFKCRVNSAAFPAPIEKTISKTKGRPKAPQVYTIPPPKEQMAKDKVSLTCMITDFFPEDITVEWQWNGQPAENYKNTQPIMDTDGSYFVYSKLNVQKSNWEAGNTFTCSVLHEGLHNHHTEKSLSHSPGGGGGMAEVQLVESGGGVVQPGGSLKLSCVASGADFSINFIRWYRQAPGKQREFVAGFTATGNTNYADSMKGRFTISRDNTKNAVYLQIDSLKPEDTAVYYCYMLDKWGQGTQVTVSSAAA
light: DVVMTQTPLSLPVSLGDQASISCRSGQSLVHSNGNTYLHWYLQKPGQSPKLLIYTVSNRFSGVPDRFSGSGSGSDFTLKISRVEAEDLGVYFCSQNTFVPWTFGGGTKLEIKRADAAPTVSIFPPSSEQLTSGGASVVCFLNNFYPKDINVKWKIDGSERQNGVLNSWTDQDSKDSTYSMSSTLTLTKDEYERHNSYTCEATHKTSTSPIVKSFNRNEC
Q: B4 was tested. Which “Bmax, fold lower than 13C3-HC-VHH A” value [8] did it give?
A: 2 fold

Q: What about the Kd [9] of the same binder?
A: 9.4 nM

B5: VHH A-NODAGA bioconjugate (VHH, not shown: small tags and cut ends)
VHH: B1 VHH with A96Y
modifications: NODAGA-BCN clicked to an azido linker on the Gln of the C-terminal Q-tag
Q: With B5 as the binder, how does the Kd [10] read?
A: 7.72 nM

B6: 13C3-HC-C5h16 (antibody)
heavy: QVQLQQSGPELVRPGVSVKISCKGSGYTFTDYAMHWVKQSHAKSLEWIGVISTKYGKTNYNQKFKGKATMTVDKSSSTAYMELARLTSEDSAIYYCARGDDGYSWGQGTSVTVSSAKTTPPSVYPLAPGSAAQTNSMVTLGCLVKGYFPEPVTVTWNSGSLSSGVHTFPAVLQSDLYTLSSSVTVPSSTWPSETVTCNVAHPASSTKVDKKIVPRDCGCKPCICTVPEVSSVFIFPPKPKDVLTITLTPKVTCVVVDISKDDPEVQFSWFVDDVEVHTAQTQPREEQFNSTFRSVSELPIMHQDWLNGKEFKCRVNSAAFPAPIEKTISKTKGRPKAPQVYTIPPPKEQMAKDKVSLTCMITDFFPEDITVEWQWNGQPAENYKNTQPIMDTDGSYFVYSKLNVQKSNWEAGNTFTCSVLHEGLHNHHTEKSLSHSPGGGGGMAEVQLVESGGGLVQPGGSLRLSCAASGTDFSINFIRWYRQAPGKGLEFVAGFTATGNTNYADSVKGRFTISRDNSKNTLYLQMNSLRAEDTAVYYCYMLDKWGQGTLVTVSSAAA
light: B4 light
Q: With B6 as the binder, how does the “binding potential, fold lower than 13C3-HC-C5h20” value [8] read?
A: ~3 fold

Q: And the Bmax [11]?
A: 381 RFI

Q: And the Kd [12]?
A: 19.6 nM

B7: B8 h1-NT(8-13) (VHH)
VHH: EVQLVESGGGVVQPGGSLRLSCAASGEIFSINFMRWYRQAPGKGLEWVAGFTRDGSTNYPDSVKGRFTISRDNAKNTVYLQMNSLRPEDTAVYYCYMLDTWGQGTQVTVSS
Q: For B7, which Kd [13] is on record?
A: 2.8 nM

B8: B8V1-NT(8-13) (VHH)
VHH: B7 VHH with S25D, G44Q, L45R, V63A, M82I, N83D, R86K
Q: For B8, which Kd [13] is on record?
A: 8.3 nM
